The target in the assay is T1, His-H1.0 fusion protein (histone H1.0) (UniProt P07305 2-194).
T1 construct: histone H1.0; Used in the pull-down and as analyte in SPR; source: E. coli BL21, purified (Ni-NTA Sepharose)
Nature of the assay: SPR; BIAcore T200; His-NS1 amine-coupled on a CM5 chip (600 RU); H1.0 at 0-500 nM in PBS flowed over, 30 uL/min, dissociation 360 s. The following applies: both partners purified. (In general: SPR reads the build-up and loss of mass on a sensor chip optically.)

Data on 1 molecule can be found in PMC12596378, “Nonstructural Protein 1 Mediates HMGB1 Release by Targeting Histone H1.0 After Respiratory Syncytial Virus Infection In Vivo and In Vitro” (Inflammation, 2025).

What is called Kd is the equilibrium constant for the complex coming apart. A high value points to a looser complex. The term kon denotes a measure of how fast the partners come together.

T1 sequence (P07305 2-194): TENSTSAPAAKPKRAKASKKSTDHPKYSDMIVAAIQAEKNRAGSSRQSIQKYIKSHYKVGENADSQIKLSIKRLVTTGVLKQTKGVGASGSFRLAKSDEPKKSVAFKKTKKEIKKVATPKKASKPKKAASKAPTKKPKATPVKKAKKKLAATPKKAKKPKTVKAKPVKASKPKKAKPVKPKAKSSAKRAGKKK

B1: His-NS1 fusion protein (respiratory syncytial virus nonstructural protein 1) (natural protein)
chain: MGSNSLSMIKVRLQNLFDNDEVALLKITCYTDKLIHLTNALAKAVIHTIKLNGIVFVHVITSSDICPNNNIVVKSNFTTMPVLQNGGYIWEMMELTHCSQPNGLLDDNCEIKFSKKLSDSTMTNYMNQLSELLGFDLNP
notes: nonstructural protein 1 (NS1) of respiratory syncytial virus; Immobilised by amine coupling on the CM5 chip; source: E. coli BL21, purified
B1 displayed a dissociation constant Kd of 31.2 nM and a kon of 25400 M⁻¹ s⁻¹.
